From patent US20260265321A1, “PEPTIDE AND POLYPEPTIDE INHIBITING THE NF-KB SIGNALING PATHWAY” (Centre National de la Recherche Scientifique, priority 2023, published 2026)

T1: 6×His-IKKβ(1-669) EE (Homo sapiens, UniProt O14920, S177E/S181E)
T1 construct: a nearly full-length (residues 1-669) and constitutively active (S177E/S181E) mutant construct of human IKKβ; made in house; host or cells: Sf21 insect cells (baculovirus)
T1 sequence (O14920 1-669 S177E/S181E): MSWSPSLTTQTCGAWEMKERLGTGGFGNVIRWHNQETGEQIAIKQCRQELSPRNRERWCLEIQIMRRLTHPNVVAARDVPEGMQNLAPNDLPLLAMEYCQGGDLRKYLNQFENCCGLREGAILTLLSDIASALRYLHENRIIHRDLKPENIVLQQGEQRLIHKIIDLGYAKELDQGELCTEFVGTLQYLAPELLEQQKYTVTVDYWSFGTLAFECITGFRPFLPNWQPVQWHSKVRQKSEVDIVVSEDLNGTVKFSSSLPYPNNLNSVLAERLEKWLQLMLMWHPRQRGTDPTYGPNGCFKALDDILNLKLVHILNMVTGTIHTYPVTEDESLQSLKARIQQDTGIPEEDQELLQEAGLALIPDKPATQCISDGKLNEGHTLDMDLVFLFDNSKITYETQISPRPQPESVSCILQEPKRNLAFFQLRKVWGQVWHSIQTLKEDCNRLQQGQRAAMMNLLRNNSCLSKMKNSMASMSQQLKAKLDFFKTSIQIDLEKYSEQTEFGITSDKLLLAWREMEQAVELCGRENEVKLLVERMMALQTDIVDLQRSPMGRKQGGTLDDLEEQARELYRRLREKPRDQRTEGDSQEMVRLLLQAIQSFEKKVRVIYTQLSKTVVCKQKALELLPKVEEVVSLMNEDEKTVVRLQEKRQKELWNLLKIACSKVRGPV

T2: G1-IKKβ, full-length wt IKKβ fused to the Gluc1 fragment (human, UniProt O14920 1-756)
T2 construct: Expressed in HEK293T cells for GPCA; full-length; also called Gluc1-IKKβ; not shown: Gluc1 fragment of Gaussia princeps luciferase and flexible 20 amino acid linker, N-terminal
T2 sequence (looked up): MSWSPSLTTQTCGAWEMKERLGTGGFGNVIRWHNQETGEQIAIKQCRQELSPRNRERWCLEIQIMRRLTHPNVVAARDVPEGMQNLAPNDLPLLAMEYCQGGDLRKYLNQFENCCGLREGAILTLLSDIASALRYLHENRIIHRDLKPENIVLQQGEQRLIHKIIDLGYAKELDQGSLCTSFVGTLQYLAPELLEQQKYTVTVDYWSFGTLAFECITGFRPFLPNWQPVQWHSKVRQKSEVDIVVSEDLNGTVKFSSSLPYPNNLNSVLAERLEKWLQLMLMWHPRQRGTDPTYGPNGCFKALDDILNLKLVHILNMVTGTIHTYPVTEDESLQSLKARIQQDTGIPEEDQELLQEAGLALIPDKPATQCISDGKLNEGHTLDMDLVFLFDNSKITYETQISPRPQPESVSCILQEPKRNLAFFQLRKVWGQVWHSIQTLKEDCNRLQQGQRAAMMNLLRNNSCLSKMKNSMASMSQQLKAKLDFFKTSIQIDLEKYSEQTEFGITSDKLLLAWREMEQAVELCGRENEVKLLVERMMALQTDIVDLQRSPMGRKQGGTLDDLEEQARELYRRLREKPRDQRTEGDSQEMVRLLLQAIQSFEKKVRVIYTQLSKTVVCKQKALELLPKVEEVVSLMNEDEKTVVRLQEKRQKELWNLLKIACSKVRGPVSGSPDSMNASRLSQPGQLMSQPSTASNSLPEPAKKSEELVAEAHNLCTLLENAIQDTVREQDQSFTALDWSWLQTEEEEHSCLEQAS

T3: G1-IKKα, full-length wt IKKα fused to the Gluc1 fragment (human, UniProt O15111 1-745)
T3 construct: Expressed in HEK293T cells for GPCA; full-length; also called Gluc1-IKKα; not shown: Gluc1 fragment of Gaussia princeps luciferase and flexible 20 amino acid linker, N-terminal
T3 sequence (looked up): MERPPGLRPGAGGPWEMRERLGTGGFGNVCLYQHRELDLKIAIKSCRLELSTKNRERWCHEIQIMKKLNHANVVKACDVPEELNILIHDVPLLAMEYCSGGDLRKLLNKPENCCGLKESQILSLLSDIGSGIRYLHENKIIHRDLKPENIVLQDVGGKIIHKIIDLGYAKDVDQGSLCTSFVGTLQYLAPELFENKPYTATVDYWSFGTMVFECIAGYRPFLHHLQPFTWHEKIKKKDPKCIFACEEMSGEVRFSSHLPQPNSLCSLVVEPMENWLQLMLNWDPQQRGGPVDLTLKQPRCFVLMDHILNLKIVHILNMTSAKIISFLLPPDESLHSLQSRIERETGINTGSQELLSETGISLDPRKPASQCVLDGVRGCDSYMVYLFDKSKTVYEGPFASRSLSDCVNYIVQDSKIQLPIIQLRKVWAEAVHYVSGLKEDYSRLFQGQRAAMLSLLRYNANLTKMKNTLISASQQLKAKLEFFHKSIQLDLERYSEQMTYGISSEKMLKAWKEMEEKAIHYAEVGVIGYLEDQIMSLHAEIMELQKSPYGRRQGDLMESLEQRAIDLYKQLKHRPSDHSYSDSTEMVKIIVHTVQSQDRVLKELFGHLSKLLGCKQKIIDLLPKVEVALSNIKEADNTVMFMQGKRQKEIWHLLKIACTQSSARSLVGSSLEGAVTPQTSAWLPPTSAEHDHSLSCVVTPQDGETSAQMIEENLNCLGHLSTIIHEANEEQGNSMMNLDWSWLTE


Tests used:
6×His-IKKβ(1-669) EE = molecular target: T1, 6×His-IKKβ(1-669) EE; test: MBP-pulldown of recombinant IKKβ by MBP-peptide fusions; type: binding; details: 0.3 μM IKKβ, Western blot
Description: Experiments were performed in PD buffer (20 mM Tris pH 8.0, 150 mM NaCl, 2 mM DTT). For each experiment, 10 μl of amylose resin (dry bead volume) coupled to MBP-fusion constructs were incubated with […] of purified 6×His-IKKα(10-667) EE and 6×His-IKKβ (1-669) EE constructs adjusted at a concentration of 0.3 μM for 2 hours at 4° C. After two quick washing steps with PD buffer, complexes were eluted by incubation with 20 μl of the same buffer supplemented with 20 mM maltose for 15 minutes at 4° C. After mild centrifugation, supernatants were recovered and migrated onto two separate 10% SDS-PAGE gels. One gel was used for Western blot analysis to detect His-IKKα or His-IKKβ using and anti-6×His antibody (Sigma, #SAB4301134), the other for Coomassie staining to detect MBP-fusion proteins. Quantification of band intensity was done using the Image J software.

[1] = molecular target: T2, G1-IKKβ, full-length wt IKKβ fused to …; test: GPCA (Gaussia princeps protein complementation assay) in HEK293T cells, NLR, mean ± SD of triplicates
Description: (§1) HEK293T cells were transfected using the reverse transfection method. Transfection mixes containing 100 ng of pSPICA-N2 and 100 ng of pSPICA-N1 plasmids expressing test proteins plus JetPEI® (Polyplus transfection) were dispensed in white 96-well plates. HEK293T cells were then seeded on the DNA mixes at a concentration of 4.2×10^4 cells per well. 48 hours after transfection, cells were washed with 50 μl of PBS and lysed with 40 μl of Renilla lysis buffer (Promega, E2820) for 30 minutes with agitation. Gaussia princeps luciferase enzymatic activity was measured using a Berthold Centro LB960 luminometer by injecting 50 μl per well of luciferase substrate reagent (Promega, E2820) and counting luminescence for 10 seconds. Results are expressed as a fold change normalized over the sum of controls, specified herein as normalized luminescence ratio (NLR) 29. For a given protein pair A/B, NLR=(Gluc1-A+Gluc2-B)/[(Gluc1-A+Gluc2)+(Gluc1+Gluc2-B)]. All interactions were measured in three independent experiments, with each experiment being carried out in triplicate. The expression levels of Gluc1- and Gluc2-fused proteins were checked by Western blotting. 24 hours post-transfection, HEK293T cells were collected, lysed by incubation on ice and centrifuged. Aliquots of cleared supernatants were loaded onto an 10% SDS-PAGE gel.

[2] = molecular target: T3, G1-IKKα, full-length wt IKKα fused to …; test: as above
Description: as §1

[3] = molecular target: T3, G1-IKKα, full-length wt IKKα fused to …; test: GPCA (Gaussia princeps protein complementation assay), G1-IKKα FL with G2-p100 constructs, NLR
Description: as §1

binding result [1] | binding result [2] | binding result [3] | Molecule | interaction with IKKβ by pulldown (6×His-IKKβ(1-669) EE)
 |  |  | DELPYDDCVFGGQRLTL [IκBα pep(s), 17 amino acid peptide from the IκBα C-terminus (residues 301-317)] | necessary and sufficient to interact with IKKβ
 |  |  | EFTEDELPYDDFVFGGQRLTL [C308F IκBα pep, IκBα pep with C308F substitution] | clearly enhance binding to IKKβ
binds | binds |  | 73-317 YD/SS (other, also called G2-IκBα 73-317 YD/SS; G2-IκBα(73-317) Y305S/D307S; not shown: N-terminal Gluc2 fragment of Gaussia princeps luciferase and the flexible 20 amino acid linker (pSPICA-N2)) DGDSFLHLAIIHEEKALTMEVIRQVKGDLAFLNFQNNLQQTPLHLAVITNQPEIAEALLGAGCDPELRDFRGNTPLHLACEQGCLASVGVLTQSCTTPHLHSILKATNYNGHTCLHLASIHGYLGIVELLVSLGADVNAQEPCNGRTALHLAVDLQNPDLVSLLLKCGADVNRVTYQGYSPYQLTWGRPSTRIQQQLGQLTLENLQMLPESEDEESYDTESEFTEFTEDELPSDSCVFGGQRLTL | 
 |  | binds | 39-852 (other, also called G2-p100 39-852; not shown: N-terminal Gluc2 fragment of Gaussia princeps luciferase and the flexible 20 amino acid linker (pSPICA-N2)) YLVIVEQPKQRGFRFRYGCEGPSHGGLPGASSEKGRKTYPTVKICNYEGPAKIEVDLVTHSDPPRAHAHSLVGKQCSELGICAVSVGPKDMTAQFNNLGVLHVTKKNMMGTMIQKLQRQRLRSRPQGLTEAEQRELEQEAKELKKVMDLSIVRLRFSAFLRASDGSFSLPLKPVISQPIHDSKSPGASNLKISRMDKTAGSVRGGDEVYLLCDKVQKDDIEVRFYEDDENGWQAFGDFSPTDVHKQYAIVFRTPPYHKMKIERPVTVFLQLKRKRGGDVSDSKQFTYYPLVEDKEEVQRKRRKALPTFSQPFGGGSHMGGGSGGAAGGYGGAGGGGSLGFFPSSLAYSPYQSGAGPMGCYPGGGGGAQMAATVPSRDSGEEAAEPSAPSRTPQCEPQAPEMLQRAREYNARLFGLAQRSARALLDYGVTADARALLAGQRHLLTAQDENGDTPLHLAIIHGQTSVIEQIVYVIHHAQDLGVVNLTNHLHQTPLHLAVITGQTSVVSFLLRVGADPALLDRHGDSAMHLALRAGAGAPELLRALLQSGAPAVPQLLHMPDFEGLYPVHLAVRARSPECLDLLVDSGAEVEATERQGGRTALHLATEMEELGLVTHLVTKLRANVNARTFAGNTPLHLAAGLGYPTLTRLLLKAGADIHAENEEPLCPLPSPPTSDSDSDSEGPEKDTRSSFRGHTPLDLTCSTKVKTLLLNAAQNTMEPPLTPPSPAGPGLSLGDTALQNLEQLLDGPEAQGSWAELAERLGLRSLVDTYRQTTSPSGSLLRSYELAGGDLAGLLEALSDMGLEEGVRLLRGPET | 
binds | binds |  | G2-IκBα FL (other, UniProt P25963 1-317, looked up, range 1-317; Expressed in HEK293T cells for GPCA; also called full-length IκBα; not shown: Gluc2 fragment of Gaussia princeps luciferase and flexible 20 amino acid linker, N-terminal) MFQAAERPQEWAMEGPRDGLKKERLLDDRHDSGLDSMKDEEYEQMVKELQEIRLEPQEVPRGSEPWKQQLTEDGDSFLHLAIIHEEKALTMEVIRQVKGDLAFLNFQNNLQQTPLHLAVITNQPEIAEALLGAGCDPELRDFRGNTPLHLACEQGCLASVGVLTQSCTTPHLHSILKATNYNGHTCLHLASIHGYLGIVELLVSLGADVNAQEPCNGRTALHLAVDLQNPDLVSLLLKCGADVNRVTYQGYSPYQLTWGRPSTRIQQQLGQLTLENLQMLPESEDEESYDTESEFTEFTEDELPYDDCVFGGQRLTL | 
binds | binds |  | 73-288 (other, also called G2-IκBα 73-288; IκBα(73-288); not shown: N-terminal Gluc2 fragment of Gaussia princeps luciferase and the flexible 20 amino acid linker (pSPICA-N2)) DGDSFLHLAIIHEEKALTMEVIRQVKGDLAFLNFQNNLQQTPLHLAVITNQPEIAEALLGAGCDPELRDFRGNTPLHLACEQGCLASVGVLTQSCTTPHLHSILKATNYNGHTCLHLASIHGYLGIVELLVSLGADVNAQEPCNGRTALHLAVDLQNPDLVSLLLKCGADVNRVTYQGYSPYQLTWGRPSTRIQQQLGQLTLENLQMLPESEDEES | 
